Five molecules from publication PMC11346174 (Investigative Ophthalmology & Visual Science, 2024) can be followed below.

The target of assay [1] is T1, PEDF-IgG Fc fusion protein (PEDF-Fc) (human, UniProt P36955 20-418).
T1 sequence (looked up): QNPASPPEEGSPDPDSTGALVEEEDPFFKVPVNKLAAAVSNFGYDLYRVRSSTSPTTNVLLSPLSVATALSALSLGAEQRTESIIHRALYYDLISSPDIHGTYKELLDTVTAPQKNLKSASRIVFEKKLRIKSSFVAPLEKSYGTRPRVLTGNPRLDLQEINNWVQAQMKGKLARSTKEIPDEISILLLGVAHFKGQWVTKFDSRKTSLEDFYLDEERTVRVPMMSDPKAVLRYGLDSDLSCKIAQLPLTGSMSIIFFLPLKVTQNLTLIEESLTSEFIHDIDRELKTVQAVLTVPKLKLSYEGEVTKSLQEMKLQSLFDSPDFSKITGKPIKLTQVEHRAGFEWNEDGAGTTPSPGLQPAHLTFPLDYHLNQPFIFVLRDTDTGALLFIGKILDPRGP
Briefly: peptide or protein array.

In assay [2] the target is T1, PEDF-IgG Fc fusion protein (PEDF-Fc). Briefly: colorimetric cell binding assay.

B1: soluble VEGFR-1 amino acid stretch (3), 629-651 (C terminus of soluble VEGFR-1), cellulose-bound peptides (peptide)
peptide: IRGEHCNKKAVFSRISKFKSTRN
Turning to B1, the binding result in assay [1] is given as “binds”.

B2: VEGFR-1/Flt-1 amino acid stretch (1), 245-265 (D3), cellulose-bound peptides (peptide)
peptide: EKNKRASVRRRIDQSNSHANI
Take B2: in assay [1], the binding result is reported as “binds”.

B3: peptide AF10 (peptide)
peptide: AFITVKHRKQQVLETVA
As for B3, in assay [2], the binding result is “binds”.

B4: VEGFR-1/Flt-1 amino acid stretch (2), 303-325 (D4), cellulose-bound peptides (peptide)
peptide: YDKAFITVKHRKQQVLETVAGKR
With B4, the binding result in assay [1] was “binds”.

B5: peptide AE10 (peptide)
peptide: NKRASVRRRIDQSNSHA
Take B5: in assay [2], the binding result is on record as “binds”.
